The subject of this data set is MS2 coat protein. The experiment in a line: apparent KD of MS2 coat protein; higher = weaker reporter binding. The conditions noted are these: Eterna round: R107. In short, it runs like this:
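Each design's apparent KD comes from the median of binding-curve fits to its normalised clusters. Those clusters carried RNA switches transcribed on-chip from Illumina sequencing clusters. SNAP-549-labelled MS2 coat protein was titrated onto them in twofold steps (0.7 or 1.5 nM to 3 µM; per step 0.8–1.5 h down to 10–20 min). Conditions were 100 mM Tris-HCl pH 7.5, 80 mM KCl, 4 mM MgCl2, without or with constant ligand.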

Where [1] appears, read: input ligand: theophylline 20 uM.
Setting [2] is: input ligand: theophylline 2 mM.
Where [3] appears, read: input ligand: tryptophan 2.4 mM.

On to “CGACACAUGAGGAUCACCCAUGUAAUGACGCGAGGACCGGUACGGCCGCCACUCGCAUGCCAAUGAGCGCAUGCGGCCUGGGUAU [Exclusion Tryp A GF6]”, for which the “apparent KD of MS2 coat protein” value reads like this: (input ligand: arginine 13.2 mM) 17.5 nM; under setting [1], 23.6 nM; under setting [2], 19.5 nM.

On to “CGACUACAGCGUGAUACCAGUGACAGAUACCAGUCUAGACAUGAGGAUCACCCAUGUACGCGCCCUUGGCAGCACACUAGAUCGA [#29 Same State - Theophylline B]”, for which the “apparent KD of MS2 coat protein” value is, setting by setting: (input ligand: arginine 13.2 mM) 36.7 nM; under setting [1], 128 nM; under setting [3], 83.2 nM.

As to “CGAUCUUUCGAAAGAAGGAUCUUGUCUGAUACCAGAGACGAAAGUCUCCCUUGGCAGCAGUGCCAACAUGAGGAUCACCCAUGUU [Theophylline A 11]”, the “apparent KD of MS2 coat protein” value was 16 nM (input ligand: arginine 13.2 mM), 17.6 nM under setting [1] and 15.5 nM under setting [3].

“CGCAACAUGAGGAUCACCCAUGUAAUGACGCGAGGACCGGUACGGCCGCCACUCGCCUGCCAAUGAGCGCAUGCGGCCUGGGUAU [Exclusion Tryp A GF7]”: the “apparent KD of MS2 coat protein” value is, setting by setting: (input ligand: arginine 13.2 mM) 11.9 nM; under setting [1], 16.1 nM; under setting [2], 13.5 nM.

In the case of “CGCCACUCGAGUGAUCCUCACGAGUGGCUACGAGGACCGGUACGGCCGCCACUCGAAUUAACAUGAGGAUCACCCAUGUAAUCCA [Brourdmod09]”, the “apparent KD of MS2 coat protein” value runs as follows: (input ligand: arginine 13.2 mM) 21.1 nM; under setting [1], 217 nM; under setting [2], 400 nM.

Turning to “CGGUAACCACAUGAGGAUCACCCAUGUGAAGGAGCGGCGAAUAAGCCAGGUAGGUCGCGCAUGAAUAAAUCAUGUAGGUGCCGAA [XArg-A 15 NuPack]”, the “apparent KD of MS2 coat protein” value was 31.2 nM (input ligand: arginine 13.2 mM); 48.4 nM (input ligand: none); 69.7 nM under setting [1]; 156 nM under setting [2]; 99.8 nM under setting [3].

Consider “CGGUAACCACAUGAGGAUCACCCAUGUGAAGGAGCGGCGAAUAAGCCAGGUAGGUCGCGCAUGAAUAAAUCAUGUUGGUGCCGAA [XArg-A 16 NuPack]”, for which the “apparent KD of MS2 coat protein” value was 31.9 nM (input ligand: arginine 13.2 mM); 45.7 nM (input ligand: none); 121 nM under setting [1]; 64.5 nM under setting [2]; 31 nM under setting [3].

As to “CGGUACAUGAGGAUCACCCAUGUGUCGGAUACCAGAGAGCCGUCUCUCCCUUGGCAGCUGGUUUUACAUGAGGAUCACCCAUGUG [Exclusion Theophylline A GF20]”, the “apparent KD of MS2 coat protein” value by setting is: (input ligand: arginine 13.2 mM) 12.5 nM; under setting [1], 15.2 nM; under setting [3], 12.6 nM.

“CGGUCGGUCGGCCGGUGAUUAUGGGAUGAAGGAGCGUGGGAAGCUACAGGUAGGUCGCAUCCGAAACAUCACGAUCACGGAUGUU [SSArg A #26Alt-Ms2 Mod]”: the “apparent KD of MS2 coat protein” value by setting is: (input ligand: arginine 13.2 mM) 46.3 nM; under setting [1], 134 nM; under setting [2], 101 nM; under setting [3], 72.4 nM.

Take “CGUCGAGACUGAAGGAGCGAGAUAACAACAUUGGGUCUCAACACAUGAGGAUCACCCAUGUCUCAGGUAGGUCGCGGUGUCACCG [Exclusion Arginine B GF21]”: the “apparent KD of MS2 coat protein” value amounted to 142 nM (input ligand: arginine 13.2 mM); 195 nM (input ligand: none); 211 nM under setting [1]; 150 nM under setting [2]; 132 nM under setting [3].

In the case of “CGUGGUGGGACGGAUACCAGCCACCGCGGCAACGCAACAUGAGGAUCACCCAUGUUGGGUGGCCCUUGGCAGCUGUCCUGCGGCG [#1 Same State - Theophylline B Attempt #26 (HarryS)]”, the “apparent KD of MS2 coat protein” value by setting is: (input ligand: arginine 13.2 mM) 9.91 nM; under setting [1], 15 nM; under setting [3], 11.4 nM.

“CGUGUCGUAACUGAUACCAGUGUACUGACAUGAGGAUCACCCAUGUUGGGUUUUGUUGUACACCCUUGGCAGCAGAAUCGAUACG [AstrosExyTheB#7]”: the “apparent KD of MS2 coat protein” value runs as follows: (input ligand: arginine 13.2 mM) 46.3 nM; under setting [1], 94 nM; under setting [3], 75.1 nM.

For the sequence “CUAGGAAACUAGUAAGGGUGGUAUUGAGAUACCAGUACAGAAAUGUACCCUUGGCAGCUCACUGCAACAUGAGGAUCACCCAUGU [Ex Theophylline A 12]”, the “apparent KD of MS2 coat protein” value by setting is: (input ligand: arginine 13.2 mM) 22.5 nM; under setting [1], 29.3 nM; under setting [3], 27 nM.

Turning to “CUAUAAUAUAGAAGGAGCGUCGAAAAUGGGUAAACAUGAGGAUCACCCAUGUAAAGGGAACGACAGGUAGGUCGCUAUAUUAUAG [AstromonsSSArgB#12]”, the “apparent KD of MS2 coat protein” value (input ligand: arginine 13.2 mM) is 181 nM; the “apparent KD of MS2 coat protein” value (input ligand: none) came to 228 nM; the “apparent KD of MS2 coat protein” value under setting [1] amounted to 237 nM; the “apparent KD of MS2 coat protein” value under setting [2] was 305 nM; the “apparent KD of MS2 coat protein” value under setting [3] worked out at 223 nM.

For the sequence “CUCUGAGUCCGCAAGGACUCAGAGGCGGAUACCAGCGAGGUCCAUCGCCCUUGGCAGCCGAACAUGAGGAUCACCCAUGUCGGUA [#1 Same State - Theophylline A Attempt #27 (HarryS)]”, the “apparent KD of MS2 coat protein” value is, setting by setting: (input ligand: arginine 13.2 mM) 8.89 nM; under setting [1], 14.5 nM; under setting [3], 10.9 nM.

As to “CUCUUCCGGAAGGAUACCAGCUACAUGAGGAUCACCCAUGUAGGAGCGGGUUUCUAAUGUAGCCCUUGGCAGCCUUAGCCCGUCG [Querarra]”, the “apparent KD of MS2 coat protein” value (input ligand: arginine 13.2 mM) was found to be 15.9 nM, the “apparent KD of MS2 coat protein” value under setting [1] is 36.5 nM and the “apparent KD of MS2 coat protein” value under setting [3] is 18 nM.

As to “CUGACGGACUCGGCCGCCACUGAUAGUAGGACAUGAGGAUCACCCAUGUAAACGAACCUCAUAGCCAGGACCGGGAGUCACGAAG [Same State Tryptophan B GF 22]”, the “apparent KD of MS2 coat protein” value came to 56.4 nM (input ligand: arginine 13.2 mM); 204 nM (input ligand: none); 189 nM under setting [1]; 410 nM under setting [2]; 49.5 nM under setting [3].

Regarding “CUGCCAUGCAGGGAUACCAGUGCGUUCAGAACAUGAGGAUCACCCAUGUCGUCUGCCGAUCACCCUUGGCAGCUCUGCAUGGCAG [#05 Same State - Theophylline B]”, the “apparent KD of MS2 coat protein” value reads like this: (input ligand: arginine 13.2 mM) 9.22 nM; (input ligand: none) 9.69 nM; under setting [1], 9.45 nM; under setting [2], 9.73 nM; under setting [3], 9.91 nM.

In the case of “CUGGCAGGAUGAUCCGCUGUCAGGGCUGAUACCAGCCACGAAAGUGGCCCUUGGCAGCAGCAAACAUGAGGAUCACCCAUGUAAA [(T)''-(M)'-(T)'-(Theo)-(Ms2)_Design2]”, the “apparent KD of MS2 coat protein” value is, setting by setting: (input ligand: arginine 13.2 mM) 54.7 nM; under setting [1], 230 nM; under setting [3], 108 nM.

In the case of “CUGUACAUCUCGGCCGCCACUGACAUGAGGAUCACCCAUGUAGUGCCGAUGAGAGACUUAUCGGCCAGGACCGGGAGGUGUGCAG [SSTryp B #32]”, the “apparent KD of MS2 coat protein” value by setting is: (input ligand: arginine 13.2 mM) 7.57 nM; (input ligand: none) 9.94 nM; under setting [1], 10.1 nM; under setting [2], 7.83 nM; under setting [3], 11.9 nM.

With “CUUGAUAACUGAAGGAGCGAGAAACCCUACAUGAGGAUCACCCAUGUAUACACGGGAACUUCUCAGGUAGGUCGCAGUAUGUCAA [Teveor]”, the “apparent KD of MS2 coat protein” value was 90.6 nM (input ligand: arginine 13.2 mM); 54.4 nM (input ligand: none); 89.3 nM under setting [1]; 165 nM under setting [2]; 71.5 nM under setting [3].

“GAAAAUCCCGUACAUGAGGAUCACCCAUGUCGAGGACCGGUACGGCCGCCACUCGCACGCAUUGCAUUGGAGGGUCAGGUACGAG [Erenerrati]”: the “apparent KD of MS2 coat protein” value by setting is: (input ligand: arginine 13.2 mM) 26.9 nM; (input ligand: none) 28.5 nM; under setting [1], 34.7 nM; under setting [2], 29.2 nM; under setting [3], 75.5 nM.

“GAAGACAUGAGGAUCACCCAUGUUACACACCGAGGACCGGUACGGCCGCCACUCGUAGGCCCUCGGCUCACCUGAGAUCCGCAUC [theeternabot_sameState_MS2_Trp_A_11]”: the “apparent KD of MS2 coat protein” value runs as follows: (input ligand: arginine 13.2 mM) 17.5 nM; under setting [1], 31.8 nM; under setting [2], 31.9 nM.

For the sequence “GACAUAUGCUAUGCGCAGGCUACCCUCAGCCGAGGACCGGUACGGCCGCCACUCGUACUACCACAUGAGGAUCACCCAUGUUAUC [theeternabot_exclusion_MS2_Trp_A_29]”, the “apparent KD of MS2 coat protein” value came out at 20.1 nM (input ligand: arginine 13.2 mM), 28.4 nM under setting [1] and 23.9 nM under setting [2].

In the case of “GACCUUAUCUGAAGGAGCGAGGUAAAUAGGGAUAGGAACAUGAGGAUCACCCAUGUGCGGCCUCAGGUAGGUCGCAGAUGAGAUU [Exclusion Arginine B GF28]”, the “apparent KD of MS2 coat protein” value is, setting by setting: (input ligand: arginine 13.2 mM) 42 nM; (input ligand: none) 93.7 nM; under setting [1], 103 nM; under setting [2], 179 nM; under setting [3], 113 nM.

Regarding “GACUAUAUGAUAUGUCAGAAAUCCUCGAAACGAGGACCGGUACGGCCGCCACUCGAGUGAUCAACAUGAGGAUCACCCAUGUAAA [Tryp A Ex t1]”, the “apparent KD of MS2 coat protein” value amounted to 36.1 nM (input ligand: arginine 13.2 mM); 36.2 nM (input ligand: none); 47.5 nM under setting [1]; 28.4 nM under setting [2]; 55.3 nM under setting [3].

Take “GAGACGUCGGGAAGGAGCGCAUCCAAACCACACAUGAGGAUCACCCAUGUAUAAAUAUGCAUGCAGGUAGGUCGCCCGGUGUCCC [Diaxeon]”: the “apparent KD of MS2 coat protein” value is, setting by setting: (input ligand: arginine 13.2 mM) 59.7 nM; (input ligand: none) 87.2 nM; under setting [1], 125 nM; under setting [2], 97.8 nM; under setting [3], 75.1 nM.

Source of the values: the supplement of paper PMC9170038.
